Measurements taken from patent publication US9114144B2, “Kallikrein-inhibitor therapies” (Dyax Corp., priority 2002, dated 2015).
Positions of bridges follow the written chain, without caps; N, C: chain ends. No end group written: not given here.

Legend:
kallikrein = assay: Kallikrein inhibitory activity in plasma and CSF of non-ischemic mice after iv treatment; format: in vivo
Description: […] analysis was performed to determine whether DX-88 was able to cross the blood-brain barrier. Non-ischemic mice were treated iv with saline or DX-88 (10 μg/mouse or 30 μg/mouse) and plasma was drawn 30 or 60 min after administration. Thirty minutes after DX-88 treatment, plasma kallikrein inhibitory activity was 2 and 4 times higher in mice treated with […], respectively.
The same dose of DX-88 was given at the beginning of ischemic period. Twenty four hours after ischemia, neurological deficits and infarct size were evaluated.

human plasma kallikrein = human plasma kallikrein (Homo sapiens, UniProt P03952); assay: Kallikrein inhibition assay, Ki,app; format: biochemical; conditions: fold higher than aprotinin
Description: The potency assay of KI polypeptides, such as PEP-1, described herein was a kinetic test, which measured fluorescence generation following the kallikrein-mediated cleavage of a substrate, […] amino methyl coumarin. A known amount of kallikrein was incubated with buffer, with a serially diluted KI polypeptide reference standard, or serially diluted KI polypeptide test samples. Each sample was run in triplicate. The substrate solution was added, and the plate read immediately using an excitation wavelength of 360 nm and an emission wavelength of 460 nm. At least two each of the reference standard and sample curves were required to have an R-squared value of ≧0.95 to be considered valid.

Sequence of human plasma kallikrein (P03952 20-390 partner limits assumed): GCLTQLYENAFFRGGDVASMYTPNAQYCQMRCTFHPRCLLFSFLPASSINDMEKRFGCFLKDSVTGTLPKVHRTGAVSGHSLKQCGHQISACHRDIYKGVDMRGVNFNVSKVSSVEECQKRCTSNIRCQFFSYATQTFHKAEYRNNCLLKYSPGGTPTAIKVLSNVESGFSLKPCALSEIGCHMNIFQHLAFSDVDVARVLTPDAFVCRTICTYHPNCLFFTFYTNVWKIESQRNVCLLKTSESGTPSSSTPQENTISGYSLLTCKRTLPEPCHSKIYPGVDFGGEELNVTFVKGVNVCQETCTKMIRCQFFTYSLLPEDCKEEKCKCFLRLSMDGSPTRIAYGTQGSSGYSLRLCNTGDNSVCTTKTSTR
Sequence of human plasma kallikrein (P03952 391-638 limits assumed): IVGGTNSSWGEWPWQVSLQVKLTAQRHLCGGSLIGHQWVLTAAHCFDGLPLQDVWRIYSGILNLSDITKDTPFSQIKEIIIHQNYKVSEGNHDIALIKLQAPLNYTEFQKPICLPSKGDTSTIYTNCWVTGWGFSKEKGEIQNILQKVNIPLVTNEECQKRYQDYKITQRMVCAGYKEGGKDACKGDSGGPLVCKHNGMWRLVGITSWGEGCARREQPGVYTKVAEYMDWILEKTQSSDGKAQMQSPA

## EAMHSFCAFKADDGPCRAAHPRWFFNIFTRQCEEFIYGGCEGNQNRFESLEECKKMCTRD (disulfide 7-57, 16-40, 32-53) [PEP-1]
kallikrein; 30 μg iv, CSF drawn 30 or 60 min after administration
  inhibitory activity in cerebral spinal fluid (CSF): marked inhibitory activity
kallikrein; 30 μg/mouse iv, thirty minutes after treatment
  inhibitory activity in CSF: marked inhibitory activity
kallikrein; intact blood-brain barrier, active form
  crossing of the blood-brain barrier: can cross rapidly the intact blood-brain barrier
Human plasma kallikrein
  affinity (Ki) for kallikrein relative to aprotinin: 1000 times
Human plasma kallikrein; listed as DX-88
  affinity (Ki) for kallikrein relative to aprotinin: at least 1000 times
